Assay results: article PMC3840377

What was measured:
[1] = target: streptavidin (UniProt P22629 25-183); test: flow cytometry, SA-488 capture on CEM cells
[2] = target: T1, alpha-thrombin (UniProt P00734;P00734 328-363;364-622); test: flow cytometry, sandwich on T27-AR-captured thrombin
[3] = target: T1, alpha-thrombin; test: flow cytometry, thrombin capture on CEM cells, T-15-biotin/SA-488 read-out

Sequence of streptavidin (P22629 25-183): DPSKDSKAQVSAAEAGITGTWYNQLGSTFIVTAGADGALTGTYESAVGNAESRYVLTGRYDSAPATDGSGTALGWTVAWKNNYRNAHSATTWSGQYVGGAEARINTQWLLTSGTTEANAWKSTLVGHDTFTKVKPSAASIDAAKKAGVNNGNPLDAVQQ

TTTTTTTATTGACCGCTGTGTGACGCAACACTCAAT (ssDNA, 5' diacyllipid) [SA-AR]: binds [1].

GGTTGGTGTGGTTGG (ssDNA) [T-15]: binds [2].

TTTTTTTGTCCGTGGTAGGGCAGGTTGGGGTGAC (ssDNA, 5' diacyllipid) [T27-AR]: binds [3].
